B1: NIF-1 (NRC Interacting Factor-1), full-length human, untagged (other)
chain: MEENEVESSSDAAPGPGRPEEPSESGLGVGTSEAVSADSSDAAAAPGQAEADDSGVGQSSDRGSRSQEEVSESSSSADPLPNSYLPDSSSVSHGPVAGVTGGPPALVHSSALPDPNMLVSDCTASSSDLGSAIDKIIESTIGPDLIQNCITVTSAEDGGAETTRYLILQGPDDGAPMTSPMSSSTLAHSLAAIEALADGPTSTSTCLEAQGGPSSPVQLPPASGAEEPDLQSLEAMMEVVVVQQFKCKMCQYRSSTKATLLRHMRERHFRPVAAAAAAAGKKGRLRKWSTSTKSQEEEGPEEEDDDDIVDAGAIDDLEEDSDYNPAEDEPRGRQLRLQRPTPSTPRPRRRPGRPRKLPRLEISDLPDGVEGEPLVSSQSGQSPPEPQDPEAPSSSGPGHLVAMGKVSRTPVEAGVSQSDAENAAPSCPDEHDTLPRRRGRPSRRFLGKKYRKYYYKSPKPLLRPFLCRICGSRFLSHEDLRFHVNSHEAGDPQLFKCLQCSYRSRRWSSLKEHMFNHVGSKPYKCDECSYTSVYRKDVIRHAAVHSRDRKKRPDPTPKLSSFPCPVCGRVYPMQKRLTQHMKTHSTEKPHMCDKCGKSFKKRYTFKMHLLTHIQAVANRRFKCEFCEFVCEDKKALLNHQLSHVSDKPFKCSFCPYRTFREDFLLSHVAVKHTGAKPFACEYCHFSTRHKKNLRLHVRCRHASSFEEWGRRHPEEPPSRRRPFFSLQQIEELKQQHSAAPGPPPSSPGPPEIPPEATTFQSSEAPSLLCSDTLGGATIIYQQGAEESTAMATQTALDLLLNMSAQRELGGTALQVAVVKSEDVEAGLASPGGQPSPEGATPQVVTLHVAEPGGGAAAESQLGPPDLPQITLAPGPFGGTGYSVITAPPMEEGTSAPGTPYSEEPAGEAAQAVVVSDTLKEAGTHYIMATDGTQLHHIELTADGSISFPSPDALASGAKWPLLQCGGLPRDGPEPPSPAKTHCVGDSQSSASSPPATSKALGLAVPPSPPSAATAASKKFSCKICAEAFPGRAEMESHKRAHAGPGAFKCPDCPFSARQWPEVRAHMAQHSSLRPHQCSQCSFASKNKKDLRRHMLTHTKEKPFACHLCGQRFNRNGHLKFHIQRLHSPDGRKSGTPTARAPTQTPTQTIILNSDDETLATLHTALQSSHGVLGPERLQQALSQEHIIVAQEQTVTNQEEAAYIQEITTADGQTVQHLVTSDNQVQYIISQDGVQHLLPQEYVVVPEGHHIQVQEGQITHIQYEQGAPFLQESQIQYVPVSPGQQLVTQAQLEAAAHSAVTAVADAAMAQAQGLFGTDETVPEHIQQLQHQGIEYDVITLADD
modifications: ^35S-L-methionine label in the in vitro binding assay
B2: B42-NIF-1 (full-length), B42 activation domain fusion expressed from pJG4-5 in yeast (other, not shown: large carriers)
chain: MEENEVESSSDAAPGPGRPEEPSESGLGVGTSEAVSADSSDAAAAPGQAEADDSGVGQSSDRGSRSQEEVSESSSSADPLPNSYLPDSSSVSHGPVAGVTGGPPALVHSSALPDPNMLVSDCTASSSDLGSAIDKIIESTIGPDLIQNCITVTSAEDGGAETTRYLILQGPDDGAPMTSPMSSSTLAHSLAAIEALADGPTSTSTCLEAQGGPSSPVQLPPASGAEEPDLQSLEAMMEVVVVQQFKCKMCQYRSSTKATLLRHMRERHFRPVAAAAAAAGKKGRLRKWSTSTKSQEEEGPEEEDDDDIVDAGAIDDLEEDSDYNPAEDEPRGRQLRLQRPTPSTPRPRRRPGRPRKLPRLEISDLPDGVEGEPLVSSQSGQSPPEPQDPEAPSSSGPGHLVAMGKVSRTPVEAGVSQSDAENAAPSCPDEHDTLPRRRGRPSRRFLGKKYRKYYYKSPKPLLRPFLCRICGSRFLSHEDLRFHVNSHEAGDPQLFKCLQCSYRSRRWSSLKEHMFNHVGSKPYKCDECSYTSVYRKDVIRHAAVHSRDRKKRPDPTPKLSSFPCPVCGRVYPMQKRLTQHMKTHSTEKPHMCDKCGKSFKKRYTFKMHLLTHIQAVANRRFKCEFCEFVCEDKKALLNHQLSHVSDKPFKCSFCPYRTFREDFLLSHVAVKHTGAKPFACEYCHFSTRHKKNLRLHVRCRHASSFEEWGRRHPEEPPSRRRPFFSLQQIEELKQQHSAAPGPPPSSPGPPEIPPEATTFQSSEAPSLLCSDTLGGATIIYQQGAEESTAMATQTALDLLLNMSAQRELGGTALQVAVVKSEDVEAGLASPGGQPSPEGATPQVVTLHVAEPGGGAAAESQLGPPDLPQITLAPGPFGGTGYSVITAPPMEEGTSAPGTPYSEEPAGEAAQAVVVSDTLKEAGTHYIMATDGTQLHHIELTADGSISFPSPDALASGAKWPLLQCGGLPRDGPEPPSPAKTHCVGDSQSSASSPPATSKALGLAVPPSPPSAATAASKKFSCKICAEAFPGRAEMESHKRAHAGPGAFKCPDCPFSARQWPEVRAHMAQHSSLRPHQCSQCSFASKNKKDLRRHMLTHTKEKPFACHLCGQRFNRNGHLKFHIQRLHSPDGRKSGTPTARAPTQTPTQTIILNSDDETLATLHTALQSSHGVLGPERLQQALSQEHIIVAQEQTVTNQEEAAYIQEITTADGQTVQHLVTSDNQVQYIISQDGVQHLLPQEYVVVPEGHHIQVQEGQITHIQYEQGAPFLQESQIQYVPVSPGQQLVTQAQLEAAAHSAVTAVADAAMAQAQGLFGTDETVPEHIQQLQHQGIEYDVITLADD
notes: also called NIF-1 expressed as a B42-fusion
B3: LexA-hRARα LBD (LexA fusion of the ligand binding domain of hRARα) (receptor, UniProt P0A7C2 1-202, looked up)
chain: MKALTARQQEVFDLIRDHISQTGMPPTRAEIAQRLGFRSPNAAEEHLKALARKGVIEIVSGASRGIRLLQEEEEGLPLVGRVAAGEPLLAQQHIEGHYQVDPSLFKPNADFLLRVSGMSMKDIGIMDGDLLAVHKTQDVRNGQVVVARIDDEVTVKRLKKQGNKVELLPENSEFKPIVVDLRQQSFTIEGLAVGVIRNGDWLSKESVRNDRNKKKKEVPKPECSESYTLTPEVGELIEKVRKAHQETFPALCQLGKYTTNNSSEQRVSLDIDLWDKFSELSTKCIIKTVEFAKQLPGFTTLTIADQITLLKAACLDILILRICTRYTPEQDTMTFSDGLTLNRTQMHNAGFGPLTDLVFAFANQLLPLEMDDAETGLLSAICLICGDRQDLEQPDRVDMLQEPLLEALKVYVRKRRPSRPHMFPKMLMKITDLRSISAKGAERVITLKMEIPGSMPPLIQEMLENSEGLDTLSGQPGGGGRDGGGLAPPPGSCSPSLSPSSNRSSPATHSP
notes: domain: LexA DBD;domain: LBD
B4: LexA-hPPARα LBD (LexA fusion of the ligand binding domain of hPPARα) (receptor, UniProt P0A7C2 1-202, looked up)
chain: MKALTARQQEVFDLIRDHISQTGMPPTRAEIAQRLGFRSPNAAEEHLKALARKGVIEIVSGASRGIRLLQEEEEGLPLVGRVAAGEPLLAQQHIEGHYQVDPSLFKPNADFLLRVSGMSMKDIGIMDGDLLAVHKTQDVRNGQVVVARIDDEVTVKRLKKQGNKVELLPENSEFKPIVVDLRQQSFTIEGLAVGVIRNGDWLSHNAIRFGRMPRSEKAKLKAEILTCEHDIEDSETADLKSLAKRIYEAYLKNFNMNKVKARVILSGKASNNPPFVIHDMETLCMAEKTLVAKLVANGIQNKEAEVRIFHCCQCTSVETVTELTEFAKAIPGFANLDLNDQVTLLKYGVYEAIFAMLSSVMNKDGMLVAYGNGFITREFLKSLRKPFCDIMEPKFDFAMKFNALELDDSDISLFVAAIICCGDRPGLLNVGHIEKMQEGIVHVLRLHLQSNHPDDIFLFPKLLQKMADLRQLVTEHAQLVQIIKKTESDAALHPLLQEIYRDMY
notes: domain: LexA DBD;domain: LBD

What was measured:
[1] = target: Human NRC expressed from pEX-NRC in HeLa cells (human, UniProt Q14686 1-2063); assay: cell-based or functional assay
[2] = target: T1, LexA-NRC-b (LexA DBD fused to NRC amino acids 849-2063), bait of the two-hybrid screen (UniProt P0A7C2 1-202; Q14686 849-2063); assay: yeast two-hybrid, LexA-NRC fusions against B42-NIF-1 constructs (FIG. 6A)
T1 construct: domain: LexA DBD;range 849-2063
Source text: Cell. Biol. 20:5048-5063 (2000), which is hereby incorporated by reference in its entirety). The yeast strain EGY48 harboring the LacZ reporter pSH1 8-34 (Gyuris et al., “Cdi1, A Human G1 and S Phase Protein Phosphatase that Associates with Cdk2,” Cell 75:791-803 (1993), which is hereby incorporated by reference in its entirety), and pEG202ΔPL-NRC-b was transformed with the GH4C1 pJG4-5 cDNA library. Transformants were directly screened on X-gal SD-galactose-raffinose plates lacking trp, ura, his, and leu. Putative positive clones were further purified on trp⁻, ura⁻, his⁻, and leu⁻ SD-galactose-raffinose plates. The purified clones were plated on SD-dextrose/trp⁻, ura^{-,} his⁻ plates to repress the expression of cDNAs from pJG4-5. Galactose-inducible interactions were verified upon replica plating each clone on trp⁻, ura⁻, his⁻, leu⁻ X-gal SD-galactose-raffinose and trp⁻, ura⁻, his⁻ X-gal SD-dextrose plates. […] The putative cDNAs from positive clones were further verified against several different baits. The positive interactors were then sequenced and subjected to restriction digestion, size determination, and further analysis.
Various regions of NRC were expressed as LexA fusions in yeast (designated as rows “a-g” in FIG. 6A) and their interaction compared with full-length NIF-1, NIF-2, and various deletions of NIF-1 conditionally expressed from pJG4-5. […]

[3] = target: B2; assay: yeast two-hybrid, B42-NIF-1 (full-length) against LexA-LBD, β-galactosidase
Experimental: To examine for this possibility, the interaction of B42-NIF-1 (full-length), conditionally expressed from pJG4-5, was studied with LexA fusions of nuclear receptor LBDs (cTRα, ERa, RXRα, GR, RARα, and PPARα) in yeast, as shown in FIG. 7. In addition, a LexA-fusion of full-length cTRα was also tested against B42-NIF-1 (full-length) and gave similar results as with the cTRα LBD. […] To document that the LexA-LBD fusions were expressed and responded to ligand in yeast, similar studies were carried out with B42-NRC.

Chain of Human NRC expressed from pEX-NRC in HeLa cells (Q14686 whole entry, the tested form may be a part): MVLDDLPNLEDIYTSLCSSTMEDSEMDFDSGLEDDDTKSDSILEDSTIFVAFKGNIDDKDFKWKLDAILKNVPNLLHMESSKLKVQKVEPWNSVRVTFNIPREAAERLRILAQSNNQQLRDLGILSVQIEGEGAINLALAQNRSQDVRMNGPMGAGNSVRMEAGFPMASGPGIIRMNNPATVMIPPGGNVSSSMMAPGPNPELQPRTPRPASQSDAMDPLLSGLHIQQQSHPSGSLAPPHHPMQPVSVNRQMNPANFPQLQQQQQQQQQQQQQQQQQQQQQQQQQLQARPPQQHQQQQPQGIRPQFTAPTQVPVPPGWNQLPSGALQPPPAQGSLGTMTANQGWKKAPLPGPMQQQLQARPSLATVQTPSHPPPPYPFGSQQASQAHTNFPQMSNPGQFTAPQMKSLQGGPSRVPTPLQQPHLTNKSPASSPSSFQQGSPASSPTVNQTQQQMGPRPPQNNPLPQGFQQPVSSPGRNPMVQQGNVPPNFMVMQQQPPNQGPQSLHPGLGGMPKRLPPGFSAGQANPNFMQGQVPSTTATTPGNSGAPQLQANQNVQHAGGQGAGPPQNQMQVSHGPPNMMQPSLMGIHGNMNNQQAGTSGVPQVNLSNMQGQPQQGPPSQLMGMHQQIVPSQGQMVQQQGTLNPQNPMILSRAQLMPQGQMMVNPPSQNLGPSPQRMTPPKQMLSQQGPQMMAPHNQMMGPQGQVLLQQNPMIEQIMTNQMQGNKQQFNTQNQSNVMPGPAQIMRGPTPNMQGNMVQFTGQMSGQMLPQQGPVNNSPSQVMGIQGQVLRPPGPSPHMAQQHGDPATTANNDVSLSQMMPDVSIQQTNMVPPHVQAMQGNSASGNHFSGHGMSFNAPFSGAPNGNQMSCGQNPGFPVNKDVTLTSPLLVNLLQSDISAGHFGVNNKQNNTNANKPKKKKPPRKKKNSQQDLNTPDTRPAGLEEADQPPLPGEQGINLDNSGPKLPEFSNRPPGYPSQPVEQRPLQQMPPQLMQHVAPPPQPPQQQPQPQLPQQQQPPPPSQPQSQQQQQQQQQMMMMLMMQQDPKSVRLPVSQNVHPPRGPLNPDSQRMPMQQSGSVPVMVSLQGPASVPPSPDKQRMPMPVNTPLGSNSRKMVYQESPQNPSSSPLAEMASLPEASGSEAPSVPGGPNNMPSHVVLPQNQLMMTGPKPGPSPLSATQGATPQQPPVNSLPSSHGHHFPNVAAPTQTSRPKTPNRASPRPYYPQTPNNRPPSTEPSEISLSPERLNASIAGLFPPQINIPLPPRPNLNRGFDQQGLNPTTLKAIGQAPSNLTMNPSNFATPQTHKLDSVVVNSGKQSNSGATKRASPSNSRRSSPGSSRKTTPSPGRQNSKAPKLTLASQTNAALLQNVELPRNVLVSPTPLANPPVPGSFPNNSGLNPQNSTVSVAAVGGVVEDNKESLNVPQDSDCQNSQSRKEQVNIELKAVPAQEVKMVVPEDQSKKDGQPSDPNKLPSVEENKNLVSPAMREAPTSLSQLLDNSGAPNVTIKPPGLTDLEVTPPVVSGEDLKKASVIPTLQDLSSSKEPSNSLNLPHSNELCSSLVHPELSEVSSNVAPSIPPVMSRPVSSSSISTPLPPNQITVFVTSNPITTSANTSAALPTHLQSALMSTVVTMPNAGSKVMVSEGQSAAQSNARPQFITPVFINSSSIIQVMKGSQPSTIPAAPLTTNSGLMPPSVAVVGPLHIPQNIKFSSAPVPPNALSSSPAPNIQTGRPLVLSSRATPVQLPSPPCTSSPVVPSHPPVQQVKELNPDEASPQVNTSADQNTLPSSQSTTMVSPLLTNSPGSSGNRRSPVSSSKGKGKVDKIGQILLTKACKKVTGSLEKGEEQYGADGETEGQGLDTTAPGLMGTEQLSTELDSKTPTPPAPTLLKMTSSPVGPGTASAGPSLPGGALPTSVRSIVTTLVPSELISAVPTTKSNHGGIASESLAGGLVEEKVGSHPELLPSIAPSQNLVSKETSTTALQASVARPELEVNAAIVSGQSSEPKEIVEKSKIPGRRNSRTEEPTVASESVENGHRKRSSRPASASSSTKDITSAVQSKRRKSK

Row | Binder | binding result [3] | other results
1 | B1 | – | activity of the -73 collagenase-CAT reporter gene in HeLa cells (fold increase) [1]: 12 fold
2 | B2 | – | binding result [2]: binds
3 | B3 | no binding | –
4 | B4 | no binding | –
